# Data reported in article PMC12494034.
# Several values for one entry are separate records, joined by “and”; a condition that tells them apart may be missing. Identical values can stand only once.
# Tests used:
# Assay in all cases: cryo-EM structure; single-particle analysis of purified HFTV1 virions (DNA-filled and empty particles sorted by 2D classification) in 18% SW buffer (2.47 M NaCl, 89 mM MgCl2, 85 mM MgSO4, 56 mM KCl, 3 mM CaCl2, 48 mM tris-HCl, pH 7.2); focused refinements of head, turrets, portal, tail, baseplate and tail fibers
# [1] = biological target: baseplate-tail connector gp41 of HFTV1 (Haloferax tailed virus 1 (HFTV1))
# [2] = biological target: tail completion protein gp29 of HFTV1 (Haloferax tailed virus 1 (HFTV1))
# [3] = biological target: head-tail connector gp26 of HFTV1 (Haloferax tailed virus 1 (HFTV1))
# [4] = biological target: tape measure protein gp40 of HFTV1 (Haloferax tailed virus 1 (HFTV1))
# [5] = biological target: turret head protein gp31 of HFTV1 (Haloferax tailed virus 1 (HFTV1))
# [6] = biological target: portal interface protein gp21 of HFTV1 (Haloferax tailed virus 1 (HFTV1))
# [7] = biological target: capsid stabilization protein gp18 of HFTV1 (Haloferax tailed virus 1 (HFTV1))
# [8] = biological target: portal protein gp13 of HFTV1 (Haloferax tailed virus 1 (HFTV1))
# [9] = biological target: major capsid protein gp19 of Haloferax tailed virus 1 (HFTV1) (Haloferax tailed virus 1 (HFTV1))
# [10] = biological target: tail fiber protein gp42 of HFTV1 (Haloferax tailed virus 1 (HFTV1))
# [11] = biological target: turret base protein gp30 of HFTV1 (Haloferax tailed virus 1 (HFTV1))
# [12] = biological target: tail tube protein gp35 of HFTV1 (Haloferax tailed virus 1 (HFTV1))
# [13] = biological target: baseplate hub gp44 of HFTV1 (Haloferax tailed virus 1 (HFTV1))
substance,measurement,setting,value
baseplate-tail connector gp41 of HFTV1 (natural protein),stoichiometry N,[1],3
tail completion protein gp29 of HFTV1 (natural protein),stoichiometry N,[2],6
head-tail connector gp26 of HFTV1 (natural protein),stoichiometry N,[3],12
tape measure protein gp40 of HFTV1 (natural protein),stoichiometry N,[4],6
turret head protein gp31 of HFTV1 (natural protein),stoichiometry N,[5],3
portal interface protein gp21 of HFTV1 (natural protein),stoichiometry N,[6],5
capsid stabilization protein gp18 of HFTV1 (natural protein),stoichiometry N,[7],3
portal protein gp13 of HFTV1 (natural protein),stoichiometry N,[8],12
major capsid protein gp19 of Haloferax tailed virus 1 (HFTV1) (natural protein),stoichiometry N,[9],5 and 6
tail fiber protein gp42 of HFTV1 (natural protein),stoichiometry N,[10],3
turret base protein gp30 of HFTV1 (from UniProt A0A410N6V5 1-115) (natural protein),stoichiometry N,[11],6
tail tube protein gp35 of HFTV1 (natural protein),stoichiometry N,[12],6
baseplate hub gp44 of HFTV1 (natural protein),stoichiometry N,[13],3
